Results: paper PMC5645147, “Binding of a C-type lectin’s coiled-coil domain to the Domeless receptor directly activates the JAK/STAT pathway in the shrimp immune response to bacterial infection”

Target: T1, native STAT, LPS-challenged shrimp (Marsupenaeus japonicus (kuruma shrimp), UniProt D0VYJ1 1-801)
T1 sequence: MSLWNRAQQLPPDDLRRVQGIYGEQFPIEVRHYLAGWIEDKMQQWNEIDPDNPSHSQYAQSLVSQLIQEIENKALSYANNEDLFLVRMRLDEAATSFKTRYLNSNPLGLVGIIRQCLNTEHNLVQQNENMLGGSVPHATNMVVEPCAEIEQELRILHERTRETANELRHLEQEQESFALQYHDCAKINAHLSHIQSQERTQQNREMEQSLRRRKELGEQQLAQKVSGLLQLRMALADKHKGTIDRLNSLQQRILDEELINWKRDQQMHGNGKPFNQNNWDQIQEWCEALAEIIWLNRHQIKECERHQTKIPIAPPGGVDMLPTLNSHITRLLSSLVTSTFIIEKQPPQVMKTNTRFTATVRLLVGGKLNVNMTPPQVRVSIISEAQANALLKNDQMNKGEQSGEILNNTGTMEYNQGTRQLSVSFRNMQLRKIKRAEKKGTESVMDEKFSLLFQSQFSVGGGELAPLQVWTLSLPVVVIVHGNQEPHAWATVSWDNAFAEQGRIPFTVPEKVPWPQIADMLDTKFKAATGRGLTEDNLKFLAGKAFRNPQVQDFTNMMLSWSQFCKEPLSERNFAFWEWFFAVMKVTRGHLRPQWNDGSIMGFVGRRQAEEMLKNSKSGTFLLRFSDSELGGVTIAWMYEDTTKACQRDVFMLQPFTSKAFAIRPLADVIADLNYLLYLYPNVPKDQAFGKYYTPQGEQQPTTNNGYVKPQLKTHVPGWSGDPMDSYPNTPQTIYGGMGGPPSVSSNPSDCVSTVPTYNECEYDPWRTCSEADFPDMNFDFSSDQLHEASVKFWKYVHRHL
Assay: EMSA; STAT from LPS-injected shrimp; binding increased; 2 ug protein, 20 fmol Dig-probe, Beyotime EMSA binding buffer (from 5x; composition and pH not stated), 20 min with probe, room temperature (stated for competition); 6% PAGE, 0.5x TBE
Conditions: chain copies: 2, blunt

B1: CruI-1 promoter STAT probe (dsDNA)
DNA 1: GCGTAAGGTTTTCTTGGAATA
DNA 2: TATTCCAAGAAAACCTTACGC
B1: binds.
